Key:
[1] = molecular target: MGG_01005 (Magnaporthe oryzae dynein light chain Tctex-type 1, dynlt1/3), wild type, recombinant (Magnaporthe oryzae) (UniProt G4NCW2); assay: ITC
[2] = molecular target: MGG_01005 (Magnaporthe oryzae dynein light chain Tctex-type 1, dynlt1/3), wild type, recombinant (Magnaporthe oryzae) (UniProt G4NCW2); assay: ITC; remark: listed apart in the source
[3] = molecular target: MGG_01005 (Magnaporthe oryzae dynein light chain Tctex-type 1, dynlt1/3), wild type, recombinant (Magnaporthe oryzae) (UniProt G4NCW2); assay: AUC
[4] = molecular target: MGG_01005 (Magnaporthe oryzae dynein light chain Tctex-type 1, dynlt1/3), wild type, recombinant (Magnaporthe oryzae) (UniProt G4NCW2); assay: SEC; gel filtration chromatography of MGG_01005 (Supplementary Figure S3)

Row | Substance | Kd [1] | stoichiometry N [1] | stoichiometry N [2] | stoichiometry N [3] | stoichiometry N [4] | dH [1]
1 | MoDyn1I2^117–150 peptide | 5.39 µM | 0.55 | 0.4 to 0.7 |  |  | 
2 | MGG_01005 (Magnaporthe oryzae dynein light chain Tctex-type 1, dynlt1/3), wild type, recombinant (from UniProt G4NCW2 1-153) (natural protein) |  |  |  | 2 | 2 | 
3 | MoDyn1I2^122–141 peptide | 15.2 µM | 1.13 |  |  |  | -3.28 kcal/mol

Source: article PMC5834530
